Assays:
Test in all cases: BLI (Gator), antibody on protein A probe, F mutant supernatant held 1 h at 60° C.
[1] = biological target: DS-CavI (positive control) RSV F protein
[2] = biological target: RSV F protein mutant YK001Ag222 (RSV A) (UniProt P12568)
[3] = biological target: RSV F protein mutant YK001Ag399 (RSV A) (RSV A) (UniProt P11209)
[4] = biological target: RSV F protein mutant YK001Ag400 (RSV A) (UniProt P12568)
[5] = biological target: RSV F protein mutant YK001Ag401 (RSV A) (RSV A) (UniProt P11209)
[6] = biological target: RSV F protein mutant YK001Ag402 (RSV A) (UniProt P12568)
[7] = biological target: RSV F protein mutant YK001Ag403 (RSV A) (UniProt P12568)
[8] = biological target: RSV F protein mutant YK001Ag404 (RSV A) (RSV A) (UniProt P11209)
[9] = biological target: RSV F protein mutant YK001Ag406 (RSV A) (RSV A) (UniProt P11209)
[10] = biological target: RSV F protein mutant YK001Ag407 (RSV A) (RSV A) (UniProt P11209)
[11] = biological target: RSV F protein mutant YK001Ag410 (AHV80758, RSV B) (RSV B)
[12] = biological target: RSV F protein mutant YK001Ag411 (AVQ93588.1, RSV B) (RSV B)
[13] = biological target: SC-TM (positive control) RSV F protein

monoclonal antibody D25
Activity of antibody D25 after 1 h at 60° C. (%) [1]: 103% | Activity of antibody D25 after 1 h at 60° C. (%) [2]: 5.8% | Activity of antibody D25 after 1 h at 60° C. (%) [3]: 80.8% | Activity of antibody D25 after 1 h at 60° C. (%) [4]: 15.6% | Activity of antibody D25 after 1 h at 60° C. (%) [5]: 20.8% | Activity of antibody D25 after 1 h at 60° C. (%) [6]: 84% | Activity of antibody D25 after 1 h at 60° C. (%) [7]: 89.7% | Activity of antibody D25 after 1 h at 60° C. (%) [8]: 75.4% | Activity of antibody D25 after 1 h at 60° C. (%) [9]: 60.4% | Activity of antibody D25 after 1 h at 60° C. (%) [10]: 77.2% | Activity of antibody D25 after 1 h at 60° C. (%) [11]: 88.7% | Activity of antibody D25 after 1 h at 60° C. (%) [12]: 91.4% | Activity of antibody D25 after 1 h at 60° C. (%) [13]: 21%

monoclonal antibody AM14
Activity of antibody AM14 after 1 h at 60° C. (%) [1]: 9.9% | Activity of antibody AM14 after 1 h at 60° C. (%) [2]: 1.1% | Activity of antibody AM14 after 1 h at 60° C. (%) [3]: 99.8% | Activity of antibody AM14 after 1 h at 60° C. (%) [4]: 1.4% | Activity of antibody AM14 after 1 h at 60° C. (%) [5]: 2.2% | Activity of antibody AM14 after 1 h at 60° C. (%) [6]: 28.6% | Activity of antibody AM14 after 1 h at 60° C. (%) [7]: 81% | Activity of antibody AM14 after 1 h at 60° C. (%) [8]: 60.9% | Activity of antibody AM14 after 1 h at 60° C. (%) [9]: 45.5% | Activity of antibody AM14 after 1 h at 60° C. (%) [10]: 52.6% | Activity of antibody AM14 after 1 h at 60° C. (%) [11]: 67.7% | Activity of antibody AM14 after 1 h at 60° C. (%) [12]: 69.5% | Activity of antibody AM14 after 1 h at 60° C. (%) [13]: 1.3%
